Measurements: US6306613, “Modulators of leaderless protein export and methods for identifying and using the same” (Ciblex Corporation, dated 2001)

Experiments:
[1] = target: T1, rat Na+/K+ ATPase α1 subunit (rat, UniProt P06685); assay: co-immunoprecipitation from co-transfected COS cells with anti-Na+/K+ ATPase α1 or anti-hCG antibody (FIG. 6)
[2] = target: T1, rat Na+/K+ ATPase α1 subunit; assay: co-immunoprecipitation from co-transfected COS cells (FIGS. 7-9)

B1: human chorionic gonadotropin α (hCG-α) (ligand)
chain: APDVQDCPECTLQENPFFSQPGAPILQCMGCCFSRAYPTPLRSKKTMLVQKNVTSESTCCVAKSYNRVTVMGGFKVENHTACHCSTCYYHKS
[1]
  binding result: no binding

B2: neomycin phosphotransferase (NPT) (enzyme)
chain: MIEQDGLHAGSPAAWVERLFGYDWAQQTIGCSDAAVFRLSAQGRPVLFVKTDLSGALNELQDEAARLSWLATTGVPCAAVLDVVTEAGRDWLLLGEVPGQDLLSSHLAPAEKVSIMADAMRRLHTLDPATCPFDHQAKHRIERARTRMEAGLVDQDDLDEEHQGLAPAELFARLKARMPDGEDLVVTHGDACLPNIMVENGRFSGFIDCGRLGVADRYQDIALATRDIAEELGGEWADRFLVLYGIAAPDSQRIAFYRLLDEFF
[2]
  binding result: no binding
